Our source for the decrease of CB expression in Teff-treated cultures on blocking of FasL interactions (flow cytometry) and decrease of CB protein expression in Treg-treated microglia on neutralization of FasL (flow cytometry) values is patent publication US8491890.

This assay has as its target Fas (CD95, APO-1) on mouse microglia (mouse) (UniProt P25446). The assay can be described thus: cell-based or functional assay.
Chain of UniProt P25446 (P25446 22-327): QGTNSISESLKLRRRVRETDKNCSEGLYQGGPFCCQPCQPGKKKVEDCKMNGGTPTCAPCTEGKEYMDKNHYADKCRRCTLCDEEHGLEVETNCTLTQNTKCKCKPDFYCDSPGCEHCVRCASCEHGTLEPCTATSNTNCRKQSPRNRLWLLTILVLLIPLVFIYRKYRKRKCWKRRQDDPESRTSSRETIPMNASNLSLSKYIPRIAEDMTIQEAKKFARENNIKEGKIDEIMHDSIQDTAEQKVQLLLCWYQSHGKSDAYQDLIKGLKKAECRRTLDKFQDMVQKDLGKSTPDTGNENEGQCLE

In turn, “Fas ligand (FasL) on mouse Treg and Teff (from UniProt P41047 1-279)” showed a decrease of CB expression in Teff-treated cultures on blocking of FasL interactions (flow cytometry) of 4.8% and a decrease of CB protein expression in Treg-treated microglia on neutralization of FasL (flow cytometry) of 40.2%.
